The source of these data is PMC10615762.

This assay addresses prefusion-stabilized SARS-CoV-2 spike protein (S-clamp) (SARS-CoV-2). Put plainly: SEC.

“prefusion-stabilized SARS-CoV-2 spike protein (S-clamp)” displayed a stoichiometry N of 3.

One may read the stoichiometry N as the number of molecules, sites or subunits per partner or assembly.
